# Data: patent US20150005474A1 (GLYCOTOPE, published 2015)
# Molecular target: MUC1 (polymorphic epithelial mucin) on human tumor cells (human, UniProt P15941 24-1255)
# Test: cell binding test with radiolabelled antibody on K562 cells, Scatchard analysis
# Chain of MUC1 (polymorphic epithelial mucin) on human tumor cells (P15941 24-1097, chain 1 of 2): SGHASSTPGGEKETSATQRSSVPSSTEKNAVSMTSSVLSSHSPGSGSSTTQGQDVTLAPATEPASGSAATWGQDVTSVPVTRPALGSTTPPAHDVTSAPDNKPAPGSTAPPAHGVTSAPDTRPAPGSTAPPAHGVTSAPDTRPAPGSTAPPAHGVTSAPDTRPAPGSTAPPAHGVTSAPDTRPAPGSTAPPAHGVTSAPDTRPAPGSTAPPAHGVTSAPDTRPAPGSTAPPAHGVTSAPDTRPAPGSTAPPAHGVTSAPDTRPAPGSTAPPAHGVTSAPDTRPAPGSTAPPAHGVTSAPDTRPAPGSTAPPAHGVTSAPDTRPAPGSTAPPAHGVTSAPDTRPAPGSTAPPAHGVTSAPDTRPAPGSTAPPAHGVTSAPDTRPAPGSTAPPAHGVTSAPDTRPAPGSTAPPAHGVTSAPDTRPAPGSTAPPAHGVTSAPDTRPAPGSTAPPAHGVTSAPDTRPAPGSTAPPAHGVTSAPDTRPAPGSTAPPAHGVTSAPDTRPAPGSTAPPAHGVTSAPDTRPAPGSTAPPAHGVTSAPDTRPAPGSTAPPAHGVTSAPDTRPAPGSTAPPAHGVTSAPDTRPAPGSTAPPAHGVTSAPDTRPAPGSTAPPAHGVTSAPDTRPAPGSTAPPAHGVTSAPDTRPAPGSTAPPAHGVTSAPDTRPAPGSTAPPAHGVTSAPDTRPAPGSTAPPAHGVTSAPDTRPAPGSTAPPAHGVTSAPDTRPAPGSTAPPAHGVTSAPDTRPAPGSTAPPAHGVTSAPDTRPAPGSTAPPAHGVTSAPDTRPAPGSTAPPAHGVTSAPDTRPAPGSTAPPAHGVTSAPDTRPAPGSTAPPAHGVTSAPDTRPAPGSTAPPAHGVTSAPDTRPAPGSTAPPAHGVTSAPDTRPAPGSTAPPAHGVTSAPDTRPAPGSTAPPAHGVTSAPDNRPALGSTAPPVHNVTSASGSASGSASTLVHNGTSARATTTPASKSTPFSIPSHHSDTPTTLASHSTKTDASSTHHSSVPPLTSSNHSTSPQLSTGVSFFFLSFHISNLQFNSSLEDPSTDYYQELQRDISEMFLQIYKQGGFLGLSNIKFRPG
# Chain of MUC1 (polymorphic epithelial mucin) on human tumor cells (P15941 1098-1255, chain 2 of 2): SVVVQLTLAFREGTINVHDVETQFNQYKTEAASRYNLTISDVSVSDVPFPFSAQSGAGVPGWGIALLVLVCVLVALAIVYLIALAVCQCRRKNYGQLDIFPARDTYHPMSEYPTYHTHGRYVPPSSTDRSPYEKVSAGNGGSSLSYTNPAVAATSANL
binder,measurement,value
"HMFG-1 (antibody, V domains shown) VH: QVQLVQSGAEVKKPGASVKVSCKASGYTFSAYWIEWVRQAPGKGLEWVGEILPGSNNSRYNEKFKGRVTVTRDTSTNTAYMELSSLRSEDTAVYYCARSYDFAWFAYWGQGTLVTVSS VL: DIQMTQSPSSLSASVGDRVTITCKSSQSLLYSSNQKIYLAWYQQKPGKAPKLLIYWASTRESGVPSRFSGSGSGTDFTFTISSLQPEDIATYYCQQYYRYPRTFGQGTKVEIKR",Ka,2.7e+08 M⁻¹
